Data as given in US20190184007A1.

What was measured:
[1] = target: T1, HLA DQA1*0101:DQB1*0501; test: REVEAL class II binding assay (cell-free)
T1 chain 1: not shown
T1 chain 2: not shown

[2] = target: T2, HLA DQA1*0102:DQB1*0602, P01920; test: REVEAL class II binding assay (cell-free)
T2 chain 1: not shown
T2 chain 2: not shown

Binder IDPFKLLQNSQVVSL (modifications not checked) [Peptide #8 (Common CP sequence)] has an REVEAL 0 hrs (% of positive control signal) [1] of 0, an REVEAL 24 hours (% of positive control signal) [1] of 0 and a Stability index [1] of 0. The REVEAL 0 hrs (% of positive control signal) [2] was 0.1, the REVEAL 24 hours (% of positive control signal) [2] was 0.1 and the Stability index [2] was 0.1.

LTVAAWSVKTSPLNM (modifications not checked) [Peptide #13 (Reverse of #10)] was tested, and the REVEAL 0 hrs (% of positive control signal) [1] was 0.3, the REVEAL 24 hours (% of positive control signal) [1] was 0.3 and the Stability index [1] was 0.4. It also gave an REVEAL 0 hrs (% of positive control signal) [2] of 0.9, an REVEAL 24 hours (% of positive control signal) [2] of 0.4 and a Stability index [2] of 0.2.

Work on RELILYDKEEIRRIWRQANNG (modifications not checked) [Peptide #1 (X179-A NP fragment)] yielded an REVEAL 0 hrs (% of positive control signal) [1] of 27.8, an REVEAL 24 hours (% of positive control signal) [1] of 7.4 and an REVEAL 0 hrs (% of positive control signal) [2] of 24.4. For the same binder, the REVEAL 24 hours (% of positive control signal) [2] was 16.9 and the Stability index [2] was 11.1.

ALSRGFGSGIITSNA (modifications not checked) [Peptide #18 (Hemagglutinin fragment)] showed an REVEAL 0 hrs (% of positive control signal) [1] of 0, an REVEAL 24 hours (% of positive control signal) [1] of 0 and a Stability index [1] of 0. It also gave an REVEAL 0 hrs (% of positive control signal) [2] of 0, an REVEAL 24 hours (% of positive control signal) [2] of 0 and a Stability index [2] of 0.

RELILYDKEEMRRIWRQANNG (modifications not checked) [Peptide #2 (X181 NP fragment)] gave an REVEAL 0 hrs (% of positive control signal) [1] of 1.1, an REVEAL 24 hours (% of positive control signal) [1] of 1 and an REVEAL 24 hours (% of positive control signal) [2] of 0.5.

SGAAGAAVKGVGTMV (modifications not checked) [Peptide #6 (Common CP sequence)] showed an REVEAL 0 hrs (% of positive control signal) [1] of 0, an REVEAL 24 hours (% of positive control signal) [1] of 0 and a Stability index [1] of 0. It also gave an REVEAL 0 hrs (% of positive control signal) [2] of 0.1, an REVEAL 24 hours (% of positive control signal) [2] of 0.1 and a Stability index [2] of 0.1.

In the case of AMERNAGSGIIISDT (modifications not checked) [Peptide #16 (Hemagglutinin fragment)], the REVEAL 0 hrs (% of positive control signal) [1] is reported as 0.1, the REVEAL 24 hours (% of positive control signal) [1] is reported as 0.1 and the Stability index [1] is reported as 0.1. For the same binder, the REVEAL 0 hrs (% of positive control signal) [2] was 0, the REVEAL 24 hours (% of positive control signal) [2] was 0 and the Stability index [2] was 0.

EKATNPIVPSFDMSN (modifications not checked) [Peptide #7 (Common CP sequence)] was tested, and the REVEAL 0 hrs (% of positive control signal) [1] was 0, the REVEAL 24 hours (% of positive control signal) [1] was 0 and the Stability index [1] was 0. The REVEAL 0 hrs (% of positive control signal) [2] was 0, the REVEAL 24 hours (% of positive control signal) [2] was 0 and the Stability index [2] was 0.

For LILYDKEEMRRIWRQ (modifications not checked) [Peptide #4 (X181 NP fragment)], the REVEAL 0 hrs (% of positive control signal) [1] was 0.1, the REVEAL 24 hours (% of positive control signal) [1] was 0.1 and the Stability index [1] was 0.1. It also gave an REVEAL 0 hrs (% of positive control signal) [2] of 0.5, an REVEAL 24 hours (% of positive control signal) [2] of 0.4 and a Stability index [2] of 0.6.

ALNRGSGSGIITSDA (modifications not checked) [Peptide #17 (Hemagglutinin fragment)] showed an REVEAL 0 hrs (% of positive control signal) [1] of 0, an REVEAL 24 hours (% of positive control signal) [1] of 0 and a Stability index [1] of 0. It also gave an REVEAL 0 hrs (% of positive control signal) [2] of 0, an REVEAL 24 hours (% of positive control signal) [2] of 0 and a Stability index [2] of 0.

VGKMIGGIGRFYIQM (modifications not checked) [Peptide #5 (Common CP sequence)] showed an REVEAL 0 hrs (% of positive control signal) [1] of 43.6, an REVEAL 24 hours (% of positive control signal) [1] of 13.9 and a Stability index [1] of 6.4. It also gave an REVEAL 0 hrs (% of positive control signal) [2] of 77.3, an REVEAL 24 hours (% of positive control signal) [2] of 52.3 and a Stability index [2] of 33.
